Measured values: patent US20240117005A1 (COUNCIL OF THE QUEENSLAND INSTITUTE OF MEDICAL RESEARCH, published 2024)
Starred links: 1 amine or outer side, 2 acyl side, 3 side chain; linkers in the order of their positions; H or OH if unused. Positions of bridges follow the written chain, without caps; N, C: chain ends. No end group written: not given here. *: point of attachment. TBMB = c1c(C[*:1])cc(C[*:3])cc1C[*:2]; Myristyl = CCCCCCCCCCCCCC*

Experiments:
[1] = target: T1, importin-α1 (IMPα1) (human, UniProt P52292 2-529); assay: DUOLINK proximity ligation in permeabilised MDA-MB-231 cells; loss of the PDL1-Ac:IMPα1 complex, DL-2 10 to 0.00975 µM
[2] = target: T1, importin-α1 (IMPα1); assay: DUOLINK proximity ligation in permeabilised MDA-MB-231 cells; loss of the PDL1:IMPα1 complex, DL-2-NP 10 to 0.3 nM
[3] = target: T1, importin-α1 (IMPα1); assay: DUOLINK proximity ligation; IC50 of DL-2-NP against IC50 of naked DL-2 for the PDL1:IMPα1 complex

IC50 [1] [nM]	IC50 [2] [nM]	fold more potent than DL-2 [3] [fold]	Binder
39	–	–	Myristyl-ACLTFIFCRLRKGRCMMDVKK (linker 2-8-15 via TBMB, also called DL-2-TBMB; DL-2-Batch 1) [DL-2 bicyclic peptide (Myristyl-ACLTFIFCRLRKGRCMMDVKK on TBMB scaffold)]
–	1	~39	ACLTFIFCRLRKGRCMMDVKK (N-terminal myristyl; cysteines covalently bound to the TBMB scaffold (bicyclic); peptide packaged in a POPC / cholesterol / DSPE-PEG lipid nanoparticle, Same peptide as DL-2, in a different formulation; also called DL-2-NP) [DL-2 nanoparticle (DL-2 bicyclic peptide encapsulated in a lipid nanoparticle)]
